Test [1] addresses T1, human CTLA4 expressed on the cell surface of CHO cells (human, UniProt P16410 36-223).
T1 construct: whole, on cells; also called CHO-huCTLA4; huCTLA4
T1 sequence (looked up): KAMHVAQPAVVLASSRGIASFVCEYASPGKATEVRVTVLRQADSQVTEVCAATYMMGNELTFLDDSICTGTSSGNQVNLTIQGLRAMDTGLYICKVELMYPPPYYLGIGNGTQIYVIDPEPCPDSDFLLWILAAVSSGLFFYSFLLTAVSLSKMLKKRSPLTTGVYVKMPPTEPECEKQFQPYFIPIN
The experiment in a line: FACS competition on CHO-huCTLA4: antibody titrated against a fixed concentration of hB7-1 (hCD80), bound hB7-1 detected, % competition, plateau about 97 %; pH 6.0 per the text; unit from the axis CTLA4 Ab concentration Log(ng/mL).

Test [2] addresses T2, recombinant human CTLA4 extracellular domain (human, UniProt P16410 36-161).
T2 construct: extracellular domain; also called huCTLA-4
T2 sequence (looked up): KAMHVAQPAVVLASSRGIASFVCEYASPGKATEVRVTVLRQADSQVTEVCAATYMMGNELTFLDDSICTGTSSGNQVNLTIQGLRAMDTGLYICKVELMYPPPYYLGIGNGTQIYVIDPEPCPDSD
Nature of the test: SPR, human CTLA4 ECD immobilised, pH 6.0, AVG. On the procedure: (§1) The CTLA4 extracellular domain (human or cynomolgus) was immobilized on the surface of a sensor chip. […] The binding kinetics were calculated using a 1:1 Longmuir model built into the analysis software.
For orientation: Surface plasmon resonance follows binding to a sensor surface in real time, without labels.

Test [3] addresses T1, human CTLA4 expressed on the cell …. Nature of the test: FACS competition on CHO-huCTLA4: antibody titrated against a fixed concentration of hB7-2 (hCD86), bound hB7-2 detected, % competition, plateaus about 48 to 57 %; pH 6.0 per the text; unit from the axis CTLA4 Ab concentration Log(ng/mL).
Test [4] deals with T2, recombinant human CTLA4 extracellular …. The experiment in a line: ELISA, wells coated with human CTLA4, assay pH 6.0; lot 6972 in Glu buffer, T0; unit from the axis Log[ng/mL]. How it is done: (§2) Both ELISA and FACS analysis were used to measure the binding activity. […] The amount of bound antibodies was quantified using anti-human IgG antibody conjugated to HRP. The absorbance at 450 nm in each measurement was proportional to the amount of antibodies bound. […] EC50 value (in ng/mL) for binding to human CTLA4 was determined by absorbance at 450 nm against antibody concentration with Prism variable slope of four-parameter dose-response curve, which was calculated using the nonlinear fit (variable slope, four parameters) model built into GraphPad Prism software (version 7.03). The buffers tested included His buffer (His), Tris buffer (Tris), Glutamine buffer (Glu) and no buffer.
Background: ELISA stands for enzyme-linked immunosorbent assay.

The target of test [5] is T3, recombinant cynomolgus CTLA4 extracellular domain (cynomolgus, UniProt G7PL88 36-161).
T3 construct: extracellular domain; also called cynoCTLA-4; cynoCTLA4
T3 sequence: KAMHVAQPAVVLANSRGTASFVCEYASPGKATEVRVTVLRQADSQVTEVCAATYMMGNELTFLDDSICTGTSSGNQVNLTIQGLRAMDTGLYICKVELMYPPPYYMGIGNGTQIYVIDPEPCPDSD
The experiment in a line: SPR, cynomolgus CTLA4 ECD immobilised, pH 6.0, equilibrium fit; SPR, pH 6.0. On the procedure: as §1
The KD was calculated by plotting the maximum SPR signal at each concentration against the antibody concentration. Experiments were run in triplicate at each pH.

For test [6], the target named is T2, recombinant human CTLA4 extracellular …. Nature of the test: ELISA, immobilised huCTLA-4, table head pH 7.0 (text: pH 7.4), Jul. 11, 2017.
Test [7] deals with T1, human CTLA4 expressed on the cell …. The experiment in a line: FACS, cells expressing human CTLA4, assay pH 6.0, MFI; lot 6972 in His buffer, T2W; unit from the axis Log[ng/mL]. On the procedure:
(§3) The amount of bound antibodies was quantified using anti-human IgG antibody conjugated to fluorophores. The MFI in each reaction was proportional to the amount of antibodies bound. The EC₅₀ value (in ng/mL) for binding to human CTLA4 on cells was determined by MFI of the singlets population against antibody concentration with a Prism variable slope of four-parameter dose-response curve, which was calculated using the nonlinear fit (variable slope, four parameters) model built into GraphPad Prism software (version 7.03).

In test [8] the target is T2, recombinant human CTLA4 extracellular …. Nature of the test: SPR, human CTLA4 ECD immobilised, pH 7.4, run 1. How it is done: as §1
Test [9] has the same target. The experiment in a line: SPR, human CTLA4 ECD immobilised. How it is done: as §1
Test [10] deals with T3, recombinant cynomolgus CTLA4 …. Nature of the test: ELISA, immobilised cynoCTLA-4, pH 6.0, mean +/- SD; ELISA, pH 6.0, mean of the two runs.
For test [11], the target named is T2, recombinant human CTLA4 extracellular …. Nature of the test: ELISA, wells coated with human CTLA4, assay pH 7.4; lot 6978 in Glu buffer, T0; curve still rising at log 3 (OD450 at most about 0.3), no plateau; unit from the axis Log[ng/mL]. On the procedure: as §2
For test [12], the target named is T1, human CTLA4 expressed on the cell …. Nature of the test: FACS, cells expressing human CTLA4, assay pH 7.4, MFI; lot 6978 in Tris buffer, T0; unit from the axis Log[ng/mL]. How it is done: as §3
For orientation: In flow cytometry, cells or beads pass a laser one at a time.

In test [13] the target is T2, recombinant human CTLA4 extracellular …. The experiment in a line: ELISA, wells coated with human CTLA4, assay pH 6.0; lot 6978 in His buffer, T0; unit from the axis Log[ng/mL]. How it is done: as §2
Test [14] has the same target. The experiment in a line: ELISA, wells coated with human CTLA4, assay pH 7.4; lot 6978 in Glu buffer, T2W; curve still rising at log 3 (OD450 at most about 0.3), no plateau; unit from the axis Log[ng/mL]. On the procedure: as §2

B1: BA-087-05-19 (antibody, V domains shown)
VH: EVQLVESGGGLVQPGGSLRLSCAASGFTFSHYTMHWVRQAPGKGLEWVSFISYDGNNKYYADSVKGRFTISRDNSKNTLYLQMNSLRAEDTAVYYCARTGWLGPFDYWGQGTLVTVSS
VL: AIQLTQSPSSLSASVGDRVTITCRASQYVGSSYLAWYLQKPGQSPQLLIYGAFSRATGIPARFSGSGSGTEFTLTISSLQSEDFAVYYCQQDGSSPWTFGQGTKVEIK
notes: Detected with anti-human IgG and a molecular weight of 146 kDa was used in SPR, so it was tested as a whole IgG; also called BA-087-05-019; BA-087-05-19 (# 6972)
Broadly, the EC50 is the concentration at which the effect is half-maximal. The term Kd denotes the equilibrium constant for the complex coming apart. As a reminder, the koff is a measure of how fast the partners let go of each other. As a reminder, the kon is the rate constant with which the complex forms. In the case of B1, the EC50 was determined as 0.745 mg/L in test [1]; 0.592 mg/L in [3]; 0.0109 mg/L in test [4]; 0.0502 mg/L in test [6]; 0.295 mg/L in test [7]; 0.0276 mg/L in [10]. Further, the values for the dissociation constant (Kd) in test [2], in test [5] and in [8] were 0.499 nM, 1.96 nM and 1.39 nM, respectively. Besides, the off-rate constant (koff) in test [2] was 0.000611 s⁻¹; in [8], 0.00126 s⁻¹. Besides, the values for the association rate constant (kon) in test [2] and in test [8] were 1.23e+06 M⁻¹ s⁻¹ and 906000 M⁻¹ s⁻¹, respectively. The “factor by which the binding activity drops from pH 6.0 to pH 7.4” value in test [9] is roughly 2 fold.

B2: BA-087-08-32 (antibody, V domains shown)
VH: EVQLVQSGAEVKKPGATVKISCKVSGFTFSHYTMHWIRQSPSRGLEWLGFISYDGNYKYYADSVKGRFTISRDNAKNSLYLQMNSLRAEDTAVYYCARTGWLGPFDYWGQGTLVTVSS
VL: EIVMTQSPATLSVSPGERATLSCRASQSVGSSYLAWYQQKPGKAPKLLIYGAFSRATGVPSRFSGSGSGTDFTLTISSLQPEDFATYYCQQDGSSPWTFGQGTKVEIK
notes: Detected with anti-human IgG and a molecular weight of 146 kDa was used in SPR, so it was tested as a whole IgG; also called BA-087-08-032; BA-087-08-32 (# 6978)
With B2, the concentration giving a half-maximal response (EC50) was 0.567 mg/L in test [1]; 1.19 mg/L in [11]; 0.456 mg/L in [3]; 1.26 mg/L in test [12]; 0.038 mg/L in [13]; 0.724 mg/L in [14]. Further, the half-maximal effective concentration (EC50) in [10] came out at 0.276 mg/L. Besides, the Kd in test [2] was determined as 0.451 nM; in [5], 5.95 nM; in [8], 52.5 nM. In addition, the results for the koff in test [2] and in [8] were 0.00163 s⁻¹ and 0.0284 s⁻¹, respectively. In addition, the kon in [2] is 3.56e+06 M⁻¹ s⁻¹. Besides, the “factor by which the binding activity drops from pH 6.0 to pH 7.4” value in test [9] was roughly 100 fold.
